B1: E3 ubiquitin-protein ligase ARIH2 (Homo sapiens), O95376 (parent)
chain: MSVDMNSQGSDSNEEDYDPNCEEEEEEEEDDPGDIEDYYVGVASDVEQQGADAFDPEEYQFTCLTYKESEGALNEHMTSLASVLKVSHSVAKLILVNFHWQVSEILDRYKSNSAQLLVEARVQPNPSKHVPTSHPPHHCAVCMQFVRKENLLSLACQHQFCRSCWEQHCSVLVKDGVGVGVSCMAQDCPLRTPEDFVFPLLPNEELREKYRRYLFRDYVESHYQLQLCPGADCPMVIRVQEPRARRVQCNRCNEVFCFKCRQMYHAPTDCATIRKWLTKCADDSETANYISAHTKDCPKCNICIEKNGGCNHMQCSKCKHDFCWMCLGDWKTHGSEYYECSRYKENPDIVNQSQQAQAREALKKYLFYFERWENHNKSLQLEAQTYQRIHEKIQERVMNNLGTWIDWQYLQNAAKLLAKCRYTLQYTYPYAYYMESGPRKKLFEYQQAQLEAEIENLSWKVERADSYDRGDLENQMHIAEQRRRTLLKDFHDT
B2: Forkhead box protein R2 (Homo sapiens), Q6PJQ5 (parent)
chain: MDLKLKDCEFWYSLHGQVPGLLDWDMRNELFLPCTTDQCSLAEQILAKYRVGVMKPPEMPQKRRPSPDGDGPPCEPNLWMWVDPNILCPLGSQEAPKPSGKEDLTNISPFPQPPQKDEGSNCSEDKVVESLPSSSSEQSPLQKQGIHSPSDFELTEEEAEEPDDNSLQSPEMKCYQSQKLWQINNQEKSWQRPPLNCSHLIALALRNNPHCGLSVQEIYNFTRQHFPFFWTAPDGWKSTIHYNLCFLDSFEKVPDSLKDEDNARPRSCLWKLTKEGHRRFWEETRVLAFAQRERIQECMSQPELLTSLFDL
partner: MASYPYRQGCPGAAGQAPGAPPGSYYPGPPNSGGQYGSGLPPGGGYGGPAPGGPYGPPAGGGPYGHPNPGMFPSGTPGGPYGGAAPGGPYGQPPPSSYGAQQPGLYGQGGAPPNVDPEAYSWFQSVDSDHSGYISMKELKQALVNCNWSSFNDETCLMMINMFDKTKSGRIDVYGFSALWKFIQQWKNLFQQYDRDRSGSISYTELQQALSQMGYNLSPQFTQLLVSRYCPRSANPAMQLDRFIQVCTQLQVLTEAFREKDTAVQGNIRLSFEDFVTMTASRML
B3: Serine/threonine-protein kinase PAK 5 (Homo sapiens), Q9P286 (parent)
chain: MFGKKKKKIEISGPSNFEHRVHTGFDPQEQKFTGLPQQWHSLLADTANRPKPMVDPSCITPIQLAPMKTIVRGNKPCKETSINGLLEDFDNISVTRSNSLRKESPPTPDQGASSHGPGHAEENGFITFSQYSSESDTTADYTTEKYREKSLYGDDLDPYYRGSHAAKQNGHVMKMKHGEAYYSEVKPLKSDFARFSADYHSHLDSLSKPSEYSDLKWEYQRASSSSPLDYSFQFTPSRTAGTSGCSKESLAYSESEWGPSLDDYDRRPKSSYLNQTSPQPTMRQRSRSGSGLQEPMMPFGASAFKTHPQGHSYNSYTYPRLSEPTMCIPKVDYDRAQMVLSPPLSGSDTYPRGPAKLPQSQSKSGYSSSSHQYPSGYHKATLYHHPSLQSSSQYISTASYLSSLSLSSSTYPPPSWGSSSDQQPSRVSHEQFRAALQLVVSPGDPREYLANFIKIGEGSTGIVCIATEKHTGKQVAVKKMDLRKQQRRELLFNEVVIMRDYHHDNVVDMYSSYLVGDELWVVMEFLEGGALTDIVTHTRMNEEQIATVCLSVLRALSYLHNQGVIHRDIKSDSILLTSDGRIKLSDFGFCAQVSKEVPKRKSLVGTPYWMAPEVISRLPYGTEVDIWSLGIMVIEMIDGEPPYFNEPPLQAMRRIRDSLPPRVKDLHKVSSVLRGFLDLMLVREPSQRATAQELLGHPFLKLAGPPSCIVPLMRQYRHH

Variants of: B1
Settings: with ub2l6_human UBE2L6, O14933
ub2l6_human UBE2L6, O14933, sequence (O14933 whole entry): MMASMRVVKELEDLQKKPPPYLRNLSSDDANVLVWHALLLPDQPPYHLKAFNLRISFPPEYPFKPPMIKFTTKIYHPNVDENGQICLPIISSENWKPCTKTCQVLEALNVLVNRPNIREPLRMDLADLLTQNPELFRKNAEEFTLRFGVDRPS
For E29D, the “effect of a mutation on the interaction” value was “with no effect”.

Variants of: B1
Settings: with bub1_human BUB1, O43683
bub1_human BUB1, O43683, sequence (O43683 whole entry, looked up): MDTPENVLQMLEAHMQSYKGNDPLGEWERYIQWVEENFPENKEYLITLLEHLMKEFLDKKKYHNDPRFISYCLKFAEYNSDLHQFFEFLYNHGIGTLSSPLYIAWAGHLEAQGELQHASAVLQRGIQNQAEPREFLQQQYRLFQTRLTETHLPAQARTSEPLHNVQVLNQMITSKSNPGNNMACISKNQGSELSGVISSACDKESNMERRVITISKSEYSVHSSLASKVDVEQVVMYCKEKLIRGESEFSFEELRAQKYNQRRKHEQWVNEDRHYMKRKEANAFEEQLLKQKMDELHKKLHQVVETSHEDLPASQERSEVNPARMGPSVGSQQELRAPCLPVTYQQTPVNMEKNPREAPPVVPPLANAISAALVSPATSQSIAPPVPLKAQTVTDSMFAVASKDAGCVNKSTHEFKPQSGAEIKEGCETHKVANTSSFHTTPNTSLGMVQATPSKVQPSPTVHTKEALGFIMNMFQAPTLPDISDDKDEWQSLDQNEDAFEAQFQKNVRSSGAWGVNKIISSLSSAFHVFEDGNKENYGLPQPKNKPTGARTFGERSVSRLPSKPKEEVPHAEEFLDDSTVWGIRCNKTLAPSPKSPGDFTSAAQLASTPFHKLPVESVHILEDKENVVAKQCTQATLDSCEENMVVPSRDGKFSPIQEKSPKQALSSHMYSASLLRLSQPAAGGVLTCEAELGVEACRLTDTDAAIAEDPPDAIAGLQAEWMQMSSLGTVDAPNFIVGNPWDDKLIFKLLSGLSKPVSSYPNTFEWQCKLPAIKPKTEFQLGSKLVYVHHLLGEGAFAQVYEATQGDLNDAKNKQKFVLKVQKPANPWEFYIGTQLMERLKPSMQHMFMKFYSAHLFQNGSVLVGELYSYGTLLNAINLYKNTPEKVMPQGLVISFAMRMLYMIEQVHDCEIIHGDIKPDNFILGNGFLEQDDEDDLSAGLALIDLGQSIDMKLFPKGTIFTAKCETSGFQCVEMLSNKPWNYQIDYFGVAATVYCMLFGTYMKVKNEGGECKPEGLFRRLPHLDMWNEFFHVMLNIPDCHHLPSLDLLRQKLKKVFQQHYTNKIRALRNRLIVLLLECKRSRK
With E29D the “effect of a mutation on the interaction” value was “with no effect”.

Variants of: B2
Settings: with pef1_human PEF1, Q9UBV8
I218F was tested, and the “effect of a mutation on the interaction” value was “disrupting interaction strength”.
With V286A the “effect of a mutation on the interaction” value was “with no effect”.

Variants of: B3
Settings: with uxt_human UXT
For S511N, the “effect of a mutation on the interaction” value was “with no effect”.
For V604I, the “effect of a mutation on the interaction” value was “with no effect”.

Variants of: B3
Settings: with fhl3_human FHL3, Q13643
fhl3_human FHL3, Q13643, sequence (Q13643 whole entry): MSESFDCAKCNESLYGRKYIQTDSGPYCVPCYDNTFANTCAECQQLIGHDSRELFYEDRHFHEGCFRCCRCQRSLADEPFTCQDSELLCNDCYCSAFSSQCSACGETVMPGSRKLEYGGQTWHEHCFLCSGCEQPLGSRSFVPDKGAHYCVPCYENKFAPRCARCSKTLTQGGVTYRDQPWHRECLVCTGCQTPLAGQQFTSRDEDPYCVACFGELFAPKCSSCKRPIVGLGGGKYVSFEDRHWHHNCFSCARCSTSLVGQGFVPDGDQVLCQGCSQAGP
S511N was tested, and the “effect of a mutation on the interaction” value was “with no effect”.
In the case of V604I, the “effect of a mutation on the interaction” value is reported as “with no effect”.

Variants of: B3
Settings: with pdli7_human PDLIM7, Q9NR12
pdli7_human PDLIM7, Q9NR12, sequence (Q9NR12 whole entry): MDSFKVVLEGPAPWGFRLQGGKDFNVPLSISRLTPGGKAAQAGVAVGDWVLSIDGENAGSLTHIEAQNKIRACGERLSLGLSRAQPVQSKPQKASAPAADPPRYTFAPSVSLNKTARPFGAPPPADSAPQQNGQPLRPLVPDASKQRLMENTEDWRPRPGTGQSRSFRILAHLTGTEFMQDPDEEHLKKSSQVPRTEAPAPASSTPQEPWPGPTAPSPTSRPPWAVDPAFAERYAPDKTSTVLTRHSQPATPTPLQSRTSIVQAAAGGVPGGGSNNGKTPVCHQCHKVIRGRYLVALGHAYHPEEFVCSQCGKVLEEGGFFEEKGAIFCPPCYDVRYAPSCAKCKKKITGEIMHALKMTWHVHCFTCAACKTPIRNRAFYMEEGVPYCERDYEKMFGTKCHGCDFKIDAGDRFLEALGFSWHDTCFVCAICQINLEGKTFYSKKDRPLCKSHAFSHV
S511N was tested, and the “effect of a mutation on the interaction” value was “with no effect”.
In the case of V604I, the “effect of a mutation on the interaction” value is reported as “with no effect”.

From IntAct's records for PubMed 31515488
